The text below walks through data of article PMC9854632, “Relationships between the Reversible Oxidation of the Single Cysteine Residue and the Physiological Function of the Mitochondrial Glutaredoxin S15 from Arabidopsis thaliana” (Antioxidants, 2022).

Data set [1] deals with T1, AtGRXS15 (reduced monomer) (Arabidopsis thaliana, UniProt Q8LBK6).
T1 construct: gene GRXS15; about 17 kDa on mPEG24 gel
T1 sequence (Q8LBK6 38-169): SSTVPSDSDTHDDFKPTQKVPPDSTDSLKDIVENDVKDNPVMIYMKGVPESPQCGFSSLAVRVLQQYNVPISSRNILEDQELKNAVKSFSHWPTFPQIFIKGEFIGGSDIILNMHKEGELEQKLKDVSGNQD
Description: mBBr fluorescence titration of remaining free thiol. The data set is classed as binding. To be noted: oxidant concentration for half-maximal protein thiol oxidation, no equilibrium or Michaelis constant; covalent (Cys91); 5 µM protein, 1 h, RT, 30 mM Tris-HCl pH 8.0, 200 mM NaCl.

The target in another data set is Cys91 (UniProt position 91, PESPQCGFSSL). The data set is described as follows: chemical modification. The following applies: room temperature; not stated (100 mM buffers, no added salt stated); 100 mM citrate buffers from pH 2.0 to 6.0; 100 mM phosphate buffers from pH 6.5 to 8.0; reduced (TCEP pre-reduced, desalted) apo monomer, 10 µM.
Another data set has as its system Cys. To be noted: cited from earlier work.
Data set [2] deals with the molecule itself. The data set is described as follows: non-reducing SDS-PAGE after oxidation and thiol alkylation (mPEG24); pre-reduced AtGRXS15 (13 µM) incubated with 5- or 10-fold molar excess of H2O2, DTTox, GSSG or GSNO for 2 h at RT; TCA precipitation, mPEG24 alkylation, non-reducing SDS-PAGE; dimer mainly with H2O2, to some extent with GSSG and GSNO, no oxidation with DTTox.

As to `N[C@@H](CCC(=O)N[C@@H](CSN=O)C(=O)NCC(=O)O)C(=O)O` [GSNO], the S0.5 in data set [1] is 21 ± 1 µM.

Consider “Glutaredoxin S15, mitochondrial (AtGRXS15) (Arabidopsis thaliana)”, for which the pKa with Cys91 is on record as 4.0 ± 0.1. For the molecule “Glutaredoxin S16 (AtGRXS16) (Arabidopsis thaliana)”, in the data set with Cys, the pKa is ~3.9. As for “Monothiol glutaredoxin 5, mitochondrial (Grx5) (Saccharomyces cerevisiae)”, the pKa in the data set with Cys is listed as ~5.0.

B1: Arabidopsis thaliana mitochondrial glutaredoxin S15 (natural protein, UniProt Q8LBK6 38-169, looked up)
chain: T1 sequence (Q8LBK6 38-169)
notes: single cysteine Cys91 in the CGFS motif; no tag is named; The fractions kept after the last SEC step were the monomeric ones; The dimer seen after oxidation is covalent (intermolecular disulfide); also called AtGRXS15; GRXS15; source: E. coli C41(DE3) with pSBET helper plasmid, purified (ammonium sulfate, SEC, Q-sepharose, Superdex S75); pre-reduced with TCEP
With B1, the “stoichiometry N” value in data set [2] is 2.

The pKa is the pH at which an ionisable group is half protonated. By stoichiometry N is commonly meant a count of units in the complex or per binding partner.
